# Assay results taken from patent US20070004636A1, “Method of degrading transcriptional factors of saccharometabolism-associated gene, method for inhibiting the degradation, and agent for inhibiting degradation and degradation inhibitor” (priority 2002, published 2007).
# B1: human μ-calpain: μ-Calpain extracted from human erythrocytes (Calpain 1, human erythrocytes; Calbiochem, Inc.) (protein, UniProt P07384 2-714; P04632 1-268, looked up)
# Calpain-1 catalytic subunit: SEEIITPVYCTGVSAQVQKQRARELGLGRHENAIKYLGQDYEQLRVRCLQSGTLFRDEAFPPVPQSLGYKDLGPNSSKTYGIKWKRPTELLSNPQFIVDGATRTDICQGALGDCWLLAAIASLTLNDTLLHRVVPHGQSFQNGYAGIFHFQLWQFGEWVDVVVDDLLPIKDGKLVFVHSAEGNEFWSALLEKAYAKVNGSYEALSGGSTSEGFEDFTGGVTEWYELRKAPSDLYQIILKALERGSLLGCSIDISSVLDMEAITFKKLVKGHAYSVTGAKQVNYRGQVVSLIRMRNPWGEVEWTGAWSDSSSEWNNVDPYERDQLRVKMEDGEFWMSFRDFMREFTRLEICNLTPDALKSRTIRKWNTTLYEGTWRRGSTAGGCRNYPATFWVNPQFKIRLDETDDPDDYGDRESGCSFVLALMQKHRRRERRFGRDMETIGFAVYEVPPELVGQPAVHLKRDFFLANASRARSEQFINLREVSTRFRLPPGEYVVVPSTFEPNKEGDFVLRFFSEKSAGTVELDDQIQANLPDEQVLSEEEIDENFKALFRQLAGEDMEISVKELRTILNRIISKHKDLRTKGFSLESCRSMVNLMDRDGNGKLGLVEFNILWNRIRNYLSIFRKFDLDKSGSMSAYEMRMAIESAGFKLNKKLYELIITRYSEPDLAVDFDNFVCCLVRLETMFRFFKTLDTDLDGVVTFDLFKWLQLTMFA
# Calpain small subunit 1: MFLVNSFLKGGGGGGGGGGGLGGGLGNVLGGLISGAGGGGGGGGGGGGGGGGGGGGTAMRILGGVISAISEAAAQYNPEPPPPRTHYSNIEANESEEVRQFRRLFAQLAGDDMEVSATELMNILNKVVTRHPDLKTDGFGIDTCRSMVAVMDSDTTGKLGFEEFKYLWNNIKRWQAIYKQFDTDRSGTICSSELPGAFEAAGFHLNEHLYNMIIRRYSDESGNMDFDNFISCLVRLDAMFRAFKSLDKDGTGQIQVNIQEWLQLTMYS
# B2: rat m-calpain: rat m-calpain (Calpain 2, rat recombinant, E. coli, Calbiochem, Inc.), positive control (protein)
# chain: MAGIAMKLAKDREAAEGLGSHERAIKYLNQDYETLRNECLEAGALFQDPSFPALPSSLGFKELGPYSSKTRGIEWKRPTEICADPQFIIGGATRTDICQGALGDCWLLAAIASLTLNEEILARVVPLDQSFQENYAGIFHFQFWQYGEWVEVVVDDRLPTKDGELLFVHSAEGSEFWSALLEKAYAKINGCYEALSGGATTEGFEDFTGGIAEWYELRKPPPNLFKIIQKALEKGSLLGCSIDITSAADSEAVTYQKLVKGHAYSVTGAEEVESSGSLQKLIRIRNPWGQVEWTGKWNDNCPSWNTVDPEVRANLTERQEDGEFWMSFSDFLRHYSRLEICNLTPDTLTCDSYKKWKLTKMDGNWRRGSTAGGCRNYPNTFWMNPQYLIKLEEEDEDDEDGERGCTFLVGLIQKHRRRQRKMGEDMHTIGFGIYEVPEELTGQTNIHLSKNFFLTTRARERSDTFINLREVLNRFKLPPGEYVLVPSTFEPHKNGDFCIRVFSEKKADYQTVDDEIEANIEEIEANEEDIGDGFRRLFAQLAGEDAEISAFELQTILRRVLAKREDIKSDGFSIETCKIMVDMLDEDGSGKLGLKEFYILWTKIQKYQKIYREIDVDRSGTMNSYEMRKALEEAGFKLPCQLHQVIVARFADDELIIDFDNFVRCLVRLEILFKIFKQLDPENTGTIQLDLISWLSFSVL
# Experiments:
# Assay type in all cases: biochemical
# Conditions in all cases: 1 hour at 37° C.
# human HNF-4α = assay: in vitro protein degradation test of HNF-4α by calpain (Western blotting)
# Experimental: Using the HNF-4α expression plasmid, in vitro synthesis of HNF-4α protein was conducted using the TNT T7 Quick Coupled Transcription/Translation System (Promega, Inc.). That is, the HNF-4α expression plasmid was mixed with TNT T7 Quick Master Mix, and then incubated for 1.5 hours at 30° C. in the presence of methionine to synthesize HNF-4α.
# The in vitro protein degradation test was carried out by adding m-calpain extracted from rabbit muscle (Protease, Calcium-Activated Neutral (calpain), Sigma Chemical Co.) at a final concentration of 50 μg/mL to the synthesized HNF-4α, and then incubating for 1 hour at 37° C. in the presence of 200 mM Tris-HCl (pH 7.8)/1 mM dithiothreitol (DTT)/6 mM CaCl2. To conduct a degradation test in the absence of calcium, a test sample was prepared by adding 10 mM ethylenediaminetetraacetic acid (EDTA) instead of 6 mM CaCl2, and the sample was then incubated in a similar manner. The samples after incubation were added to an equal volume of 2× sodium dodecyl sulfate (SDS) sample buffer (4% SDS/125 mM Tris-HCl, pH 6.8/20% glycerol/0.01% bromphenol blue (BPB)/10% β-mercaptoethanol), heated for 5 minutes, and subjected to 10% SDS-PAGE for separation. Thereafter, Western blotting was carried out to detect HNF-4α using anti-HNF-4α antibody/HNF-4α (C-19) antibody (Santa Cruz Biotechnology, Inc.) and anti-Xpress antibody (Invitrogen, Inc.). An ECL Western blotting detection kit (Amersham pharmacia biotech) was used for the detection.
# The final concentration of human m-calpain in the reaction system was 2.33 mg/mL as the protein concentration of the lysate of sf-9 cells that expressed human m-calpain. The final concentration of rat m-calpain in the reaction system was 59 units/mL. A degradation test was also conducted in the same manner without addition of calpain. Further, to test for degradation in the absence of calcium, a sample was prepared by adding 10 mM of EDTA instead of 6 mM CaCl2, and a degradation test was conducted with the sample in a similar manner. The samples after incubation were added to an equal volume of 2×SDS sample buffer, heated for 5 minutes, and subjected to 5-20% SDS-PAGE for separation. Thereafter, Western blotting was carried out to detect HNF-4α using anti-HNF-4α antibody/HNF-4α (C-19) antibody. An ECL Western blotting detection kit was used for the detection.
# An in vitro protein degradation test was carried out by adding μ-calpain to HNF-4α at a final concentration of 50 units/mL, and incubating for 1 hour at 37° C. in the presence of 200 mM Tris-HCl (pH 7.8)/1 mM DTT/6 mM CaCl2. […]
# human HNF-1α = assay: in vitro protein degradation test of HNF-1α by calpain (Western blotting)
# Experimental: Using the HNF-1α expression plasmid, in vitro synthesis of HNF-1α protein was carried out using the TNT T7 Quick Coupled Transcription/Translation System. That is, the HNF-1α expression plasmid was mixed with TNT T7 Quick Master Mix, and then incubated for 1.5 hours at 30° C. in the presence of methionine to synthesize HNF-1α. Thereafter, immunoprecipitation was conducted by adding anti-Xpress antibody to the synthesized HNF-1α, mixing by inversion for 1 hour at 4° C., and then adding Protein G Sepharose 4 Fast Flow and mixing by inversion for an additional 1 hour at 4° C. Subsequently, Protein G Sepharose was collected by centrifugation and washed 3 times with washing buffer (50 mM Tris-HCl, pH 7.5/150 mM NaCl/0.2% Nonidet P-40), followed by rinsing with 200 mM Tris-HCl (pH 7.8) to obtain the HNF-1α sample as 20% slurry (hereunder, referred to as “HNF-1α slurry”).
# Protein degradation tests were carried out in vitro by adding μ-calpain or m-calpain to the HNF-1α slurry, and incubating for 1 hour at 37° C. in the presence of 200 mM Tris-HCl (pH 7.8)/1 mM DTT/6 mM CaCl2. The final concentrations of the respective calpain in the reaction system were as follows: 50 units/mL of human μ-calpain; 50 μg/mL of rabbit m-calpain as a protein concentration; and 59 units/mL of rat m-calpain. For a control experiment, an HNF-1α slurry was incubated without the addition of calpain in a similar manner in the presence of calcium. Further, to test for protein degradation in the absence of calcium, a sample was prepared by adding 10 mM of EDTA instead of 6 mM of CaCl2 and was incubated in the same manner. The samples after incubation were added to an equal volume of 2×SDS sample buffer, heated for 5 minutes, and then subjected to 5-20% SDS-PAGE for separation. Thereafter, Western blotting was carried out to detect HNF-1α using anti-Omni/M21 antibody (Santa Cruz Biotechnology, Inc.), which recognizes a His-Xpress region, and anti-HNF-1α antibody/HNF-1α (C-19) antibody (Santa Cruz Biotechnology, Inc.). An ECL Western blotting detection kit was used for conducting the detection.
# In-vitro protein degradation tests were carried out in the same manner as in Example 7, but the lysate of sf-9 cells that coexpressed m-calpain with calpain small subunit 1 was used as m-calpain. The final concentration of the lysate of the sf-9 cells that expressed these proteins in the reaction system was 1.75 mg/mL as a protein concentration. The final concentration of rat m-calpain in the reaction system was 59 units/mL. Detection of HNF-1α was performed in the same manner as Example 7, but only anti-HNF-1α antibody/HNF-1α (C-19) antibody was used.
# human IPF-1 = assay: in vitro protein degradation test of IPF-1 by calpain (Western blotting)
# Experimental: Using the IPF-1 expression plasmid, synthesis of IPF-1 protein was carried out in vitro using the TNT T7 Quick Coupled Transcription/Translation System. That is, the IPF-1 expression plasmid was mixed with TNT T7 Quick Master Mix, and then incubated for 1.5 hours at 30° C. in the presence of methionine to synthesize IPF-1.
# Protein degradation tests were carried out in vitro by adding μ-calpain or m-calpain to IPF-1, and incubating for 1 hour at 37° C. in the presence of 200 mM Tris-HCl (pH 7.8)/1 mM DTT/6 mM CaCl2. The final concentrations of each calpain in the reaction systems were as follows: 50 units/mL of human μ-calpain; 50 μg/mL of rabbit m-calpain as a protein concentration, and 59 units/mL of rat m-calpain. For a control experiment, IPF-1 was incubated without addition of calpain in the same manner in the presence of calcium. Further, to test for protein degradation in the absence of calcium, a sample was prepared by adding 10 mM of EDTA instead of 6 mM of CaCl2, and incubated in the same manner. The samples after incubation were added to an equal volume of 2×SDS sample buffer, heated for 5 minutes, and subjected to 5-20% SDS-PAGE for separation. Thereafter, Western blotting was carried out to detect IPF-1 using anti-Xpress antibody and anti-IPF1 (PDX-1) antibody/N-18 (Santa Cruz Biotechnology, Inc.). The ECL Western blotting detection kit was used for conducting the detection.
# In-vitro protein degradation tests were carried out in the same manner as Example 10, but the lysate of sf-9 cells that coexpressed m-calpain with calpain small subunit 1 was used as m-calpain. The final concentration of the lysate of sf-9 cells that expressed these proteins in the reaction system was 2.33 mg/mL as a protein concentration. The final concentration of rat m-calpain in the reaction system was 59 units/mL. Detection of IPF-1 was performed in the same manner as Example 10, but only anti-IPF-1 antibody/N-18 was used.
# [1] = in the absence of calcium (10 mM EDTA instead of CaCl2)
# [2] = in the presence of calcium (6 mM CaCl2), Western blotting
Molecule,degradation of HNF-4α (human HNF-4α; [1]),degradation of HNF-4α (human HNF-4α; [2]),degradation of HNF-1α (human HNF-1α; [1]),degradation of HNF-1α (human HNF-1α; [2]),degradation of IPF-1 (human IPF-1; [1]),degradation of IPF-1 (human IPF-1; [2])
B1,not observed,observed,not degraded,observed,not degraded,observed
B2,,,not degraded,observed,not degraded,observed
